Measured values as given in patent publication US20060211043A1.

Target: USP-AE, segment from A region to E region of Ultraspiracle (USP) of Spodoptera litura, N-terminal His tag, expressed in Escherichia coli (Spodoptera litura)
Assay: cell-based or functional assay

“EcR-DF, segment from D region to F region of the molting hormone receptor (EcR) of Spodoptera litura, N-terminal His tag, expressed in Escherichia coli and refolded by gel filtration” was tested, and the molar ratio of EcR-DF to USP-AE at which ponasterone A binding saturates (USP-AE titrated onto a fixed amount of EcR-DF) (molar ratio EcR-DF:USP-AE (1:1)) was 1.
